The target of experiment [1] is T1, αvβ3 integrin on human coronary artery smooth muscle cells (CASMCs) (human, UniProt P06756 31-1048; P05106 27-788).
T1 construct: whole, on cells; Endogenous receptor on sub-confluent cultured human CASMCs (Clonetics); It was identified as the ~300 kD crosslinked band by immunoprecipitation with an αvβ3 integrin antibody; also called approximately 300 kD cell surface protein on CASMCs
Nature of the experiment: 125I-OPN binding to sub-confluent CASMCs, displaced by unlabeled OPN, 37 °C 3 h; Scatchard analysis (LIGAND program).
Procedure: The radioactivity was measured by gamma counter and the specific binding was calculated by subtracting the non-specific binding from the total binding.

For experiment [2], the target named is T1, αvβ3 integrin on human coronary artery …. Nature of the experiment: competition with 125I-OPN in affinity crosslinking on CASMCs; GRGDS at 1 µM.
Procedure: After washing, the cells were incubated with 0.20 mM DSS in 1 ml HBSS, pH 7.6 at 37° C. for 30 min. The cells were scraped, collected by centrifugation and lysed in 40 µl of 1% Triton X-100 solution containing 1 mM PMSF, 20 µg/ml leupeptin and 2 mM EDTA.

T1 sequence (P06756 31-1048, chain 1 of 2): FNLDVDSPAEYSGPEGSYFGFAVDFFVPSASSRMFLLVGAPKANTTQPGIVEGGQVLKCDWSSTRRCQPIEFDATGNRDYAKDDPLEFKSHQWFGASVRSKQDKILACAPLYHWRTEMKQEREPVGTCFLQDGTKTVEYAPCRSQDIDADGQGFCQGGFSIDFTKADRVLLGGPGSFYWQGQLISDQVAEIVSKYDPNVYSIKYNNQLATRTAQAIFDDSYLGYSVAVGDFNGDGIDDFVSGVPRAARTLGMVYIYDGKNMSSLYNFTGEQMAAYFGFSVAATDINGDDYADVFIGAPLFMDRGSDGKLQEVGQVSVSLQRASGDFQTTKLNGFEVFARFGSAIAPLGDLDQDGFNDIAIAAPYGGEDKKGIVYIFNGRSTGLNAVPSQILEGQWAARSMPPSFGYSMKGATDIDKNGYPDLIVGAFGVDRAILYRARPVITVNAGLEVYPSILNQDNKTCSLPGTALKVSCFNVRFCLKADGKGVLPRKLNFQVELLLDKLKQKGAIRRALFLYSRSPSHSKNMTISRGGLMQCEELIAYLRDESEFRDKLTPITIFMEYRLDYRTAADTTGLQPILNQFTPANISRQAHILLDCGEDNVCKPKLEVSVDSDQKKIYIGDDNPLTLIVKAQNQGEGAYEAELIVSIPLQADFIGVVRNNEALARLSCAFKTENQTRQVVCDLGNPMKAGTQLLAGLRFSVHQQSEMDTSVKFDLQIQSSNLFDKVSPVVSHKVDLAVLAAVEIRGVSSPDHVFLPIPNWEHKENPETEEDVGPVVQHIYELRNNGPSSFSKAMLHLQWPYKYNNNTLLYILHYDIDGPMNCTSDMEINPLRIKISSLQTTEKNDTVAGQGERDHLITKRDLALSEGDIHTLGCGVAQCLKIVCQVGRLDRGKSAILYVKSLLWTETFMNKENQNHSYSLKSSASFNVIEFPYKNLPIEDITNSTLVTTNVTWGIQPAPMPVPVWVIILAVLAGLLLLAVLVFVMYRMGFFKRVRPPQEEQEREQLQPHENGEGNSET
T1 sequence (P05106 27-788, chain 2 of 2): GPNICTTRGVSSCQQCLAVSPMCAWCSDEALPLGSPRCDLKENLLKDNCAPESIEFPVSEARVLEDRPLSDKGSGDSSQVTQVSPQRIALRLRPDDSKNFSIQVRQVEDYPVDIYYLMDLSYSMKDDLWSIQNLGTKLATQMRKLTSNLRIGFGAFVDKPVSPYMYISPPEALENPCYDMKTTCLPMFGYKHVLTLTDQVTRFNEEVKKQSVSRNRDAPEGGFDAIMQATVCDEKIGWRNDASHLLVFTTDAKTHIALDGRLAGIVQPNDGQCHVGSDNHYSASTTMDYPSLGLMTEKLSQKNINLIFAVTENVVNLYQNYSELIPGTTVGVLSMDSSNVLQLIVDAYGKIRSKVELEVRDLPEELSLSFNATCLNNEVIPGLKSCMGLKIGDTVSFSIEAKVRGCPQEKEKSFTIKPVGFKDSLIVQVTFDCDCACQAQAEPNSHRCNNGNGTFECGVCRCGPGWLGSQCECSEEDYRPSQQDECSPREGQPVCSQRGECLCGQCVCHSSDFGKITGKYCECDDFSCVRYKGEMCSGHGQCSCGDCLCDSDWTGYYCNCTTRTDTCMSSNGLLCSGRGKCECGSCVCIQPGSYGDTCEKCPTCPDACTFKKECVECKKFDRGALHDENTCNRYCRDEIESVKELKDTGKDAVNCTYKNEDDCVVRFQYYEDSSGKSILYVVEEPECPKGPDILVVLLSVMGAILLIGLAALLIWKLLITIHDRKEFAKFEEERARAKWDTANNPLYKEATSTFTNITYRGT

B1: human osteopontin (purified hOPN) (ligand)
chain: not shown
modifications: radioiodinated (125I, Chloramine-T method) when used as tracer; labelled residues not stated; the natural protein is described as a glycosylated phosphoprotein
Molecule B1 showed a dissociation constant (Kd) in experiment [1] of 1 nM. This lies in the single-digit nanomolar range. Regarding GRGDS (also called GRGDS peptide) [Gly-Arg-Gly-Asp-Ser (GRGDS) oligopeptide], the binding result in experiment [2] is listed as “binds”.

The record behind these values is patent US6458590 (US Dept. of Health and Human Services, dated 2002).
